The results in this text go back to the nanobody polyreactivity screen of Harvey et al. (2022).

The data set is described as follows: yeast display, Sf9 membrane polyspecificity reagent, FACS + sequencing; frameworks hold sequencing errors. Summed up: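 Polyreactivity labels are assigned by the sorting gate from which each nanobody was recovered. The gates were low and high (top ~1%), set on anti-HA fluorescence for expression and streptavidin fluorescence for reagent binding. Before sorting, galactose-induced (36–48 hours) yeast display cells were stained for 1 hour at 4 °C with 10% biotinylated, detergent-solubilized Sf9 membrane reagent.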
Consider “QVQLVESGRGLVQAGGSLRLSCAASGSISGGNAMGWYRQAPRKARELVAANDYTDDSTYYADSVKGRFTISRDNAKNTVYLQMNSQKPEDTAVYYCAADAYRAQGDYWGQGTQVTVSS”, for which the “polyreactivity (PSR sort gate)” value is listed as “low polyreactivity”.
Under “QVQLVESGGGLVQAGGSLRLSCAASGIIFGRYTMGWYRQAPGKERELVAAITSSGITYYADSVKGRFTISRDNAKNTVYLQMNSLKPEDSAVYYCNADYSIPGYYWPYDYWGQGTQVTVSS” stands “low polyreactivity”; under “QVQRVESGGGLVQAGGSLRLSCAASGSIFVFYAMGWYRQAPGKERELVATISSVGRTNYADSVKGRFTISRDNAKNTVYLQMNSLKPEDTAVYYCAARRFRGSYYWGQGTQVTVSS”, “high polyreactivity”; under “QVQLVESGGGLVQAGGSLRLSCAASGSINNRNAMGWYIQAPGKERELVAAITRRGGSTYYADSVKGRFTISRDNAKNTVYLQMNSLKPEETAVYYFNAVKGLSSWSYEYWGQGSQVTVSS”, “high polyreactivity”.
As to “QVQLVESGGGLVQAGGSLRLSCAASGRIFRVYAMGWYRQAPGKERELVAAISSRGGRTYYADSVKGRFTISRDNAKNTVYLQMNSLKPEDTAVYYCAADGRSCSRTTSRYDYWGQGTQVTVSS”, the “polyreactivity (PSR sort gate)” value is listed as “high polyreactivity”.
The same measure for “QVQLVESGGGLFQAGGSLRLSCAASGRTFYNNAMGWYRQAPGKERELVATINNRGGTTYYADSVKGRFTISRDNAKNTVYLQMNSLKPEDTAVYYCAKSAQRYSYRYYYWGQGTQVTVSS”: “high polyreactivity”; for “QVQLVESGGGLVQAGGSLRLSCAASGRTFYVNAMGWYRQAPGKERELVASITSGGSTYYADSVKGRFTISRDNAKNTVSLQMNSLKPEDTAVYYCAAGSKDLYRPYDYWGQGTQLTVSS”: “high polyreactivity”; for “QVQLEESGAGLVQAGGSLRLSCAASVSIFRQYAMGWYRQAPGKERELFAAINYSGGKTYYADSVKGRFTISRDNAKNTVYLQLNSLKPEDTAVYYCAADSVRHYWWAYYYWGQVTQVTVSS”: “low polyreactivity”.
Under “QVQLVESGGGLVQAGGSLRLSCAASGFTFSYNAMGWYRQAPGKERELVAAISSTGTSTYYADSVKGRFTISRDNAKNTVYLQMNSLKPEDTAVYYCNAYGYDGYYAGRHGYWGQGTQVTVSS” stands “low polyreactivity”; under “QVQLVESGGGLVQAGGSLRLSCAASGFTFGGYAMGWYRQAPGKERELVAAITWSGGTTYYADSVKGRFTISRDNAKNTVYLQMNSLKPEDTAVYYCAAESTLPIIDRDDYWGQGSQVTVSS”, “low polyreactivity”; under “QVQIVESGGGLVQAGGSLRLSCAASGLTFEWYTMGWYRQAPGKERELVAVITVSGSSTYYADSVKGRFTISRDNAKNTVYLQMNSLKPEDTAVYYCNADWSFYSYTLYDYWGQGTQVTVSS”, “low polyreactivity”.
For “QVQLVESGGGLVQAGGSLRLSCAASGFTFQAYAMGWYRQAPGKERELVAAIRSRGDSTYYADSVKGRFTISRDNAKNTVYLQMNSLKPEDTAVYYCNVLGYSYWGQGTQVTVSS”, the “polyreactivity (PSR sort gate)” value was “high polyreactivity”.
The same measure for “QVQLVESGGGLVQAGGSLRLSCAASGRTFSAYAMGWYRQAPGKERELVARITSVDSTNYADSVKGRFTISRDNAKNTVYLQMNSLKPDDTAVYYCNATFVFPFVDYDDYWGQGTQVTVSS”: “low polyreactivity”; for “QVQLVESGGGLVQAGGSLRLSCAASGSTYGDNAMGWYRQAPGKERELVAAISSGGGSTYYADSVKGRFTISRDNAKNTVYLQMYSLNPEDTAVYYCGADGTLTLYRYILDYWGQGYQVTVSS”: “low polyreactivity”.
Under “QVQLVESGGGLVQAGGSLRLSCAASGRIFPYNAMGWYRQAPGKEREFVASIRTRGVSTYYADSVKGRFTISRDNAKNTVYLQMNSLKPEDTAVYYCNAQRPGYAKGPRYDYWGQGTQVTVSS” stands “high polyreactivity”; under “QVQLVESGGCLVQAGGSLRLSCAASGFTFVGYAMGWYRQAPGKERELVAAITSSGGSTYYADSVKGRFTISRDNAKNTVYLQMNSLKPEDTAVYYCAAPAPVLSTQKRFDSWGQGTQVTVSS”, “low polyreactivity”; under “QVQLVESGGGLVQAGGSLRLSCAASGITFTAYAMGWYRHAPGKERELVATINSTGITNYADSVKGRFTISRDNAKNTVYLQMNSLKPEDTAVYYCAADLLDNSSYDGMDYWGQGTQVTVSS”, “low polyreactivity”.
As for “QVQLVESGGGLVQAGGSLRLSCAASGSTYTLNAMGWYRQAPGKERELVADITSGGGGTYYADSVKGRFTISRDNAKNTVYLQMNSLKPEDTAVYYCAADDFHSLLGYWYGLFDYWGQGTQVTVSS”, the “polyreactivity (PSR sort gate)” value is recorded as “low polyreactivity”.
Under “QVQLEESGGGLVQAGGSLRLSCAASGFTISYYAMGWYRQAPGKERELVAAISSSGGSTYYADSVKGRFTISRDNAKNTVYLQMNSLKPDDTAVYYCAAGWPEYLRDGDYWGQGTQVTVSS” stands “low polyreactivity”; under “QVQLEESGGGLVQAGGSLRLSCAASGSIFRVYAMGWYRQAPGKERELVAAISQSADSTYYADSVKGRFTILRDNAKNTVYFQMNSLKPEDTAVYYCAAEYPYIYRFDYWGQGTQVTVSS”, “low polyreactivity”.
Under “QVQLVESGGGLVQAGGSLSLSCAATGSTLKFNAMGWYRQAPGKERELVAAINFSGGSTYYADSVKGRFTISRDNAKNTVYLQMNSLKPEDTAVYYCAAEASYYSRSVRWRYDYYYWGQGTQVTVSS” stands “high polyreactivity”; under “QVQLVESGGGLVQAGGSLRLSCAASGITFYSYAMGWYRQAPGKERELVAAISSSGTTYYADSVKGRFTISRDNAKNTVYLQMNSLKPEDTAVYYCATDYSLGWYQDSDGGYQFDYWGQGTQVTVSS”, “high polyreactivity”.
For the sequence “QVQLVESGGGLVQAGGSLRLSCADSGFTFYVYTMGWYRQAPAKERELVAAITWSGGSTYYADSVKGRFTISRDNAKNTVYLQMNSLKPEDTAVYYCNRVGYWVGHDSWGQGTQVTVSS”, the “polyreactivity (PSR sort gate)” value is “high polyreactivity”.
Under “QVQLVESGGGLVQAGGSLRLSSAASGSTFPYNAMGWYRQAPGKARELVAAITSRGGSTYYADSVKGRFTISRDNAKNTVYLQMNSLKPEDTAVYYCATPGDTYGWTRRRYYYWGQGTQVTVSS” stands “high polyreactivity”; under “QVQLVESGGGLVQAGGSLRLSCAASGRIFWYNAMGWYRQAPGKERELVAGITRSGGRTYYADSVKGRFTISRDNAKNTVYLQMNSLKPEDTAVYYCAAAPYARRDYEYWGQGTQVTVSS”, “high polyreactivity”.
Under “QVQLVESGGGLVQAGGSLRLSCAASGIIFTGYAMGWYRQAPGKERELVAAISRSGGGTYYADSVKGRFTISRDNAKNTVYLQMNSLKPEDTAVDYCNRLRIAASYWQAYDYWGQGTQLTVSS” stands “high polyreactivity”; under “QVQIVESGGGLVQAGGSLRLSCAASGITFRFYALGWYRQATGKERELVAAISWSGGSTNYADSVKGRFTISRDNAKNTVYLQMNSLKPEDTAVYYCNVVGKYYSGGTYEYWGQGTQVTVSS”, “high polyreactivity”; under “QVQLVESGGGLVQAGGSLRLSCAASGSTFLNNAMGWSRQAPGEERELVAAISRRGGNTYYADSEKGRFTISRDNAKNTVSLHMNSLKPEDTAVYYCAADLVWTRYFGYAQDYYIEFDYWGQGTQVTVSS”, “high polyreactivity”.
The same measure for “QVQLVESGGGLVQAGGSLRLSCAASGFIFIANAMGWYRQAPGKERELVAAISDGGSTYYADSVKGRFTISRDNAKNTVYLQMNSLKPEDTGVYYCAKDVTWAGHYDYWGQGTQVTVSS”: “low polyreactivity”; for “QVQLVESGGGLVQAGGSLRLSCAASGLIFYRYAMGWYRQAPGKERELVAAISRRGGSTYYADSVKGRFTISRDNAKNTVYLQMNRLKAEETAVYYCAARLPGYYGIGDYWGQGTQVTVSS”: “high polyreactivity”; for “QVQIVESWGGLVQAGGSLRLSCAASGSTIYTYPMGWYRQAPGKERELFAAISYRGGSTYYADSVKVRYSISRDNAKNTVYLQMKSLKPEDTAVYYCNVDGVVVGTKRGGYDYWGQGTQVTVSS”: “low polyreactivity”.
On to “QDQHVESGGGLVQAGGSLRLSGAASGRTVGWYAMGWYRQAHGKVRELVAAITSSVDSTYYADSVKGRFTISRDNAKNTVYLLMNRLKPEDTAVYYCAADYDDGFYLYDYWGQGTQVTVSS”, for which the “polyreactivity (PSR sort gate)” value is listed as “low polyreactivity”.
The same measure for “QVQLVESGGGLVQAGGSLRLSCAASGIFLVYAMGWYRQAPGKERELVAAIRSDASTNYADSVKGRFTISRDNAKNTVYLQMNILKPEDTAVYYCNTAQLVSDEFDYWGQGTQVTVSS”: “low polyreactivity”.
Under “QVQLVESGGGLVQAGGSLRLSCAASGSTLRRYAMGWYRQAPGKERELVAAISGTGSRTYYADSVNGRFTISRDNAKNTDYLQMNSLKPEDTAVYYCNASQYRLTENDYWGQGTQVNVSS” stands “high polyreactivity”; under “QVQLVESGGGLVQAVGSLRLSCDASGSTFYPYAIGWYRQAPAKESELVARITRGVGSTYYADSVKGRFTISRDNAKNTVYLQMNSLIPEDTAVYYCNRVEYFTVWGYDYWGQGTQVTVSS”, “low polyreactivity”.
The same measure for “QVQLVESGGGLVQAGGSLRLSCAASGSTFTYYAMGWYRQAPGKERELVAAISRRGGSTYYADSVKGRFTISRDNAKNTVYLQMNSLKPEDTAVYYCNARLKPLWGGRYDYWGQGTQVTVSS”: “high polyreactivity”; for “QVQLVESGGGLVQAGGSLRLSCAASGRTLRIYAMGWYRQAPGKERELVAAITSSGRTNYADSVKGRFTISRDNAKNTVYLQMNSLKPEDTAVYYCSADYYYYVAGVHYDYWGQGTQVTVSS”: “low polyreactivity”; for “QVQLVESGGGLVQAGGSLRLSCAASGLIFWYYAMGRYRQAPGKERELVASISSGGDTTYADSVKGRFTISRDNAKNTVYLQMNSLKPEDTAVYYGAAERYVRVWVAGILHYDYWGQGTQVTVSS”: “low polyreactivity”.
As to “QVQLVESGGGLLQAGGSLRLSCAASGRTFAYNAMAWYRQAPGKERELVAAITDSDGNTYYADSVKGRFTISRDNAKNTVYLLMNSLKPEDTAVYYCAADYIILDHVTRGFVYEYWGQGTQVTVSS”, the “polyreactivity (PSR sort gate)” value is reported as “low polyreactivity”.
“QVQLVESGGRLVQAGGSLRLSCAASGRTFGKYVMGWYRQAPGKERELVAAISRSGGGTYYADSVKGRFTISRDNAKNTVYLQMNSLKPEDTAVYYCAKGSRSNIFQDSYNYWGQGSQVTVSS”: the “polyreactivity (PSR sort gate)” value is on record as “high polyreactivity”.
